Assay results: FireProtDB (doi:10.1371/journal.pone.0110439)

Conditions: Homo sapiens, pH 7, transition: 2, structure 1DXX; for ddG of mutation (higher = less stable) / unfolding free energy: Urea; for Tm / change of melting temperature, mutant - wild type (higher = more stable): Thermal
[1] = 25 °C, Fluorescence, PBS, reversible: yes
[2] = CD, sodium phosphate 0.1 M, NaCl 0.15 M, reversible: yes
[3] = Fluorescence, sodium phosphate 0.1 M, NaCl 0.15 M, reversible: yes

Dystrophin, P11532 K18N
ddG of mutation (higher = less stable) [1]: 3.7 kcal/mol | unfolding free energy [1]: 7.5 kcal/mol | Tm (CD, PBS, reversible: no): 57.6 °C | change of melting temperature, mutant - wild type (higher = more stable) (CD, PBS, reversible: no): -3.4 °C | Tm [2]: 57.6 °C | change of melting temperature, mutant - wild type (higher = more stable) [2]: -3.4 °C | ddG of mutation (higher = less stable) [2]: 3.7 kcal/mol | unfolding free energy [2]: 7.5 kcal/mol | ddG of mutation (higher = less stable) [3]: 3.7 kcal/mol | unfolding free energy [3]: 7.5 kcal/mol
